In patent US20250283129A1, “PROCESS” (Sun Pharmaceutical Industries Australia Pty Limited, priority 2021, published 2025):
Like-named read-outs stand apart in the source and are kept apart here.

Key:
[1] = test system: thebaine; assay: Whole cell biotransformation of thebaine to oripavine by E. coli cells expressing CODM variants; format: cell-based; conditions: for average thebaine to oripavine yield: FIG. 5; for oripavine yield improved relative to WT CODM: oripavine yield assayed after 4 hours
[2] = test system: codeine; assay: Whole cell biotransformation of codeine to morphine by E. coli cells expressing CODM variants; format: cell-based; conditions: for average codeine to morphine yield: FIG. 5, morphine assayed after 30 minutes per legend; for morphine yield improved relative to WT CODM: morphine yield assayed after 30 minutes; for speed of biotransformation with codeine as substrate (in words): time course over two hours
[3] = morphine after 30 minutes, oripavine after 4 hours

B1: 17M: codeine 3-O-demethylase with amino acid substitution I7M (protein, listed as Papaver somniferum)
chain: METPILMKLGNGLSIPSVQELAKLTLAEIPSRYTCTGESPLNNIGASVTDDETVPVIDLQNLLSPEPVVGKLELDKLHSACKEWGFFQLVNHGVDALLMDNIKSEIKGFFNLPMNEKTKYGQQDGDFEGFGQPYIESEDQRLDWTEVFSMLSLPLHLRKPHLFPELPLPFRETLESYLSKMKKLSTVVFEMLEKSLQLVEIKGMTDLFEDGLQTMRMNYYPPCPRPELVLGLTSHSDFSGLTILLQLNEVEGLQIRKEERWISIKPLPDAFIVNVGDILEIMTNGIYRSVEHRAVVNSTKERLSIATFHDSKLESEIGPISSLVTPETPALFKRGRYEDILKENLSRKLDGKSFLDYMRM
average thebaine to oripavine yield ([1]; after 4 hours): 6%
average codeine to morphine yield [2]: 32%

B2: E259D: codeine 3-O-demethylase with amino acid substitution E259D (protein, listed as Papaver somniferum)
chain: METPILIKLGNGLSIPSVQELAKLTLAEIPSRYTCTGESPLNNIGASVTDDETVPVIDLQNLLSPEPVVGKLELDKLHSACKEWGFFQLVNHGVDALLMDNIKSEIKGFFNLPMNEKTKYGQQDGDFEGFGQPYIESEDQRLDWTEVFSMLSLPLHLRKPHLFPELPLPFRETLESYLSKMKKLSTVVFEMLEKSLQLVEIKGMTDLFEDGLQTMRMNYYPPCPRPELVLGLTSHSDFSGLTILLQLNEVEGLQIRKEDRWISIKPLPDAFIVNVGDILEIMTNGIYRSVEHRAVVNSTKERLSIATFHDSKLESEIGPISSLVTPETPALFKRGRYEDILKENLSRKLDGKSFLDYMRM
oripavine yield improved relative to WT CODM [1]: ~38%
morphine yield improved relative to WT CODM [2]: ~30%

B3: E259D+R260K: codeine 3-O-demethylase with amino acid substitutions E259D and R260K (protein, listed as Papaver somniferum)
chain: METPILIKLGNGLSIPSVQELAKLTLAEIPSRYTCTGESPLNNIGASVTDDETVPVIDLQNLLSPEPVVGKLELDKLHSACKEWGFFQLVNHGVDALLMDNIKSEIKGFFNLPMNEKTKYGQQDGDFEGFGQPYIESEDQRLDWTEVFSMLSLPLHLRKPHLFPELPLPFRETLESYLSKMKKLSTVVFEMLEKSLQLVEIKGMTDLFEDGLQTMRMNYYPPCPRPELVLGLTSHSDFSGLTILLQLNEVEGLQIRKEDKWISIKPLPDAFIVNVGDILEIMTNGIYRSVEHRAVVNSTKERLSIATFHDSKLESEIGPISSLVTPETPALFKRGRYEDILKENLSRKLDGKSFLDYMRM
product yield / performance compared to WT CODM strain (in words) [1, 3]: improved compared to the WT CODM stain

B4: R260T: codeine 3-O-demethylase with amino acid substitution R260T (protein, listed as Papaver somniferum)
chain: METPILIKLGNGLSIPSVQELAKLTLAEIPSRYTCTGESPLNNIGASVTDDETVPVIDLQNLLSPEPVVGKLELDKLHSACKEWGFFQLVNHGVDALLMDNIKSEIKGFFNLPMNEKTKYGQQDGDFEGFGQPYIESEDQRLDWTEVFSMLSLPLHLRKPHLFPELPLPFRETLESYLSKMKKLSTVVFEMLEKSLQLVEIKGMTDLFEDGLQTMRMNYYPPCPRPELVLGLTSHSDFSGLTILLQLNEVEGLQIRKEETWISIKPLPDAFIVNVGDILEIMTNGIYRSVEHRAVVNSTKERLSIATFHDSKLESEIGPISSLVTPETPALFKRGRYEDILKENLSRKLDGKSFLDYMRM
less oripavine generated than WT CODM ([1]; after 4 hours): ~29%
less morphine generated than WT CODM ([2]; after 30 minutes): ~28%

B5: E259G+R260K: codeine 3-O-demethylase with amino acid substitutions E259G and R260K (protein, listed as Papaver somniferum)
chain: METPILIKLGNGLSIPSVQELAKLTLAEIPSRYTCTGESPLNNIGASVTDDETVPVIDLQNLLSPEPVVGKLELDKLHSACKEWGFFQLVNHGVDALLMDNIKSEIKGFFNLPMNEKTKYGQQDGDFEGFGQPYIESEDQRLDWTEVFSMLSLPLHLRKPHLFPELPLPFRETLESYLSKMKKLSTVVFEMLEKSLQLVEIKGMTDLFEDGLQTMRMNYYPPCPRPELVLGLTSHSDFSGLTILLQLNEVEGLQIRKEGKWISIKPLPDAFIVNVGDILEIMTNGIYRSVEHRAVVNSTKERLSIATFHDSKLESEIGPISSLVTPETPALFKRGRYEDILKENLSRKLDGKSFLDYMRM
product yield / performance compared to WT CODM strain (in words) [1]: improved compared to the WT CODM stain

B6: P4A: codeine 3-O-demethylase with amino acid substitution P4A (protein, listed as Papaver somniferum)
chain: METAILIKLGNGLSIPSVQELAKLTLAEIPSRYTCTGESPLNNIGASVTDDETVPVIDLQNLLSPEPVVGKLELDKLHSACKEWGFFQLVNHGVDALLMDNIKSEIKGFFNLPMNEKTKYGQQDGDFEGFGQPYIESEDQRLDWTEVFSMLSLPLHLRKPHLFPELPLPFRETLESYLSKMKKLSTVVFEMLEKSLQLVEIKGMTDLFEDGLQTMRMNYYPPCPRPELVLGLTSHSDFSGLTILLQLNEVEGLQIRKEERWISIKPLPDAFIVNVGDILEIMTNGIYRSVEHRAVVNSTKERLSIATFHDSKLESEIGPISSLVTPETPALFKRGRYEDILKENLSRKLDGKSFLDYMRM
product yield / performance compared to WT CODM strain (in words) [1, 3]: minor improvement in product yield

B7: 15K: codeine 3-O-demethylase with amino acid substitution I5K (protein, listed as Papaver somniferum)
chain: METPKLIKLGNGLSIPSVQELAKLTLAEIPSRYTCTGESPLNNIGASVTDDETVPVIDLQNLLSPEPVVGKLELDKLHSACKEWGFFQLVNHGVDALLMDNIKSEIKGFFNLPMNEKTKYGQQDGDFEGFGQPYIESEDQRLDWTEVFSMLSLPLHLRKPHLFPELPLPFRETLESYLSKMKKLSTVVFEMLEKSLQLVEIKGMTDLFEDGLQTMRMNYYPPCPRPELVLGLTSHSDFSGLTILLQLNEVEGLQIRKEERWISIKPLPDAFIVNVGDILEIMTNGIYRSVEHRAVVNSTKERLSIATFHDSKLESEIGPISSLVTPETPALFKRGRYEDILKENLSRKLDGKSFLDYMRM
oripavine yield improved relative to WT CODM [1]: ~79%
morphine yield improved relative to WT CODM [2]: ~58%
speed of biotransformation with codeine as substrate (in words) [2]: faster than the WT CODM control
yield of morphine ([2]; time course, after one hour): ~94%

B8: T3K: codeine 3-O-demethylase with amino acid substitution T3K (protein, listed as Papaver somniferum)
chain: MEKPILIKLGNGLSIPSVQELAKLTLAEIPSRYTCTGESPLNNIGASVTDDETVPVIDLQNLLSPEPVVGKLELDKLHSACKEWGFFQLVNHGVDALLMDNIKSEIKGFFNLPMNEKTKYGQQDGDFEGFGQPYIESEDQRLDWTEVFSMLSLPLHLRKPHLFPELPLPFRETLESYLSKMKKLSTVVFEMLEKSLQLVEIKGMTDLFEDGLQTMRMNYYPPCPRPELVLGLTSHSDFSGLTILLQLNEVEGLQIRKEERWISIKPLPDAFIVNVGDILEIMTNGIYRSVEHRAVVNSTKERLSIATFHDSKLESEIGPISSLVTPETPALFKRGRYEDILKENLSRKLDGKSFLDYMRM
product yield / performance compared to WT CODM strain (in words) [1, 3]: minor improvement in product yield

B9: M360I: codeine 3-O-demethylase with amino acid substitution M360I (protein, listed as Papaver somniferum)
chain: METPILIKLGNGLSIPSVQELAKLTLAEIPSRYTCTGESPLNNIGASVTDDETVPVIDLQNLLSPEPVVGKLELDKLHSACKEWGFFQLVNHGVDALLMDNIKSEIKGFFNLPMNEKTKYGQQDGDFEGFGQPYIESEDQRLDWTEVFSMLSLPLHLRKPHLFPELPLPFRETLESYLSKMKKLSTVVFEMLEKSLQLVEIKGMTDLFEDGLQTMRMNYYPPCPRPELVLGLTSHSDFSGLTILLQLNEVEGLQIRKEERWISIKPLPDAFIVNVGDILEIMTNGIYRSVEHRAVVNSTKERLSIATFHDSKLESEIGPISSLVTPETPALFKRGRYEDILKENLSRKLDGKSFLDYMRI
oripavine yield improved relative to WT CODM [1]: ~33%
morphine yield improved relative to WT CODM [2]: ~29%
speed of biotransformation with codeine as substrate (in words) [2]: faster than the WT CODM control but not as fast as the other two mutant strains

B10: E259G: codeine 3-O-demethylase with amino acid substitution E259G (protein, listed as Papaver somniferum)
chain: METPILIKLGNGLSIPSVQELAKLTLAEIPSRYTCTGESPLNNIGASVTDDETVPVIDLQNLLSPEPVVGKLELDKLHSACKEWGFFQLVNHGVDALLMDNIKSEIKGFFNLPMNEKTKYGQQDGDFEGFGQPYIESEDQRLDWTEVFSMLSLPLHLRKPHLFPELPLPFRETLESYLSKMKKLSTVVFEMLEKSLQLVEIKGMTDLFEDGLQTMRMNYYPPCPRPELVLGLTSHSDFSGLTILLQLNEVEGLQIRKEGRWISIKPLPDAFIVNVGDILEIMTNGIYRSVEHRAVVNSTKERLSIATFHDSKLESEIGPISSLVTPETPALFKRGRYEDILKENLSRKLDGKSFLDYMRM
oripavine yield improved relative to WT CODM [1]: ~27%
morphine yield improved relative to WT CODM [2]: ~24%

B11: WT CODM: wild type codeine 3-O-demethylase (UniProtKB: D4N502), N-terminally fused to 6H and MBP, expressed in E. coli (protein, UniProt D4N502 1-360, looked up)
Codeine O-demethylase: METPILIKLGNGLSIPSVQELAKLTLAEIPSRYTCTGESPLNNIGASVTDDETVPVIDLQNLLSPEPVVGKLELDKLHSACKEWGFFQLVNHGVDALLMDNIKSEIKGFFNLPMNEKTKYGQQDGDFEGFGQPYIESEDQRLDWTEVFSMLSLPLHLRKPHLFPELPLPFRETLESYLSKMKKLSTVVFEMLEKSLQLVEIKGMTDLFEDGLQTMRMNYYPPCPRPELVLGLTSHSDFSGLTILLQLNEVEGLQIRKEERWISIKPLPDAFIVNVGDILEIMTNGIYRSVEHRAVVNSTKERLSIATFHDSKLESEIGPISSLVTPETPALFKRGRYEDILKENLSRKLDGKSFLDYMRM
modifications: N-terminal His6-MBP fusion
notes: wild type codeine 3-O-demethylase (UniProtKB: D4N502), N-terminally fused to 6H and MBP, expressed in E. coli
average thebaine to oripavine yield ([1]; after 4 hours): 47%
average codeine to morphine yield [2]: 47%
